Bridge positions count the residues as written; N and C are the ends. Ends that are not written are not given here. * marks the point of attachment. Biotin = O=C1N[C@H]2[C@H](CS[C@H]2CCCCC(=O)*)N1
B2: FMC63 IgG (antibody, V domains shown)
VH: EVKLQESGPGLVAPSQSLSVTCTVSGVSLPDYGVSWIRQPPRKGLEWLGVIWGSETTYYNSALKSRLTIIKDNSKSQVFLKMNSLQTDDTAIYYCAKHYYYGGSYAMDYWGQGTSVTVSS
VL: DIQMTQTTSSLSASLGDRVTISCRASQDISKYLNWYQQKPDGTVKLLIYHTSRLHSGVPSRFSGSGSGTDYSLTISNLEQEDIATYFCQQGNTLPYTFGGGTKLEIT
notes: Murine monoclonal antibody to human CD19; also called FMC63 IgG antibody; biotinylated FMC63 IgG

Tests used:
FMC63 IgG = biological target: B2; assay: ELISA with FMC63 IgG; ELISA with FMC63 IgG (FIG. 7); micromolar range
[1] = biological target: T1, FMC63 Mimotope Mutant RLCPWSAACREL; assay: flow cytometry of yeast clones stained with FMC63 IgG; stacked histograms, no unstained control drawn
T1 construct: also called G9 with two alanines inserted between the cysteines
T1 peptide: RLCPWSAACREL
Procedure: (§1) Specifically, a representative mimotope, […] […] To generate mutations, two complementary oligos with the codon replaced at the desired site were denatured at 95° C. and annealed by slow cooling to 25° C. (decreasing by 0.5° C./second). The annealed oligos were treated with T4 PNK (T4 Polynucleotide Kinase) to add a terminal phosphate, and then ligated into digested pCT-CON2 vector. Positive clones having the correct oligo inserted were tested and transformed into competent EBY100 yeast cells.

[2] = biological target: T2, FMC63 Mimotope Mutant RLCPWSACREL; assay: as above
T2 construct: also called G9 with one alanine inserted between the cysteines
T2 peptide: RLCPWSACREL
Procedure: as §1

[3] = biological target: T3, biotinylated F12 mimotope RICPWNCKEL (no flanking residues) (not fully specified (bridges); cysteine pairing not given here); assay: ELISA, biotinylated peptide on a streptavidin plate, OD(450nm) against the FMC63 IgG concentration (nM)
T3 construct: Free peptide loaded on a streptavidin coated plate for ELISA; also called Bio-F12; F12 without flanking residues
T3 peptide: Biotin-RICPWNCKEL

[4] = biological target: T4, biotinylated F12 derivative SASRICPWNCKEL (not fully specified (bridges); cysteine pairing not given here); assay: as above
T4 construct: Free peptide loaded on a streptavidin coated plate for ELISA
T4 peptide: Biotin-SASRICPWNCKEL

[5] = biological target: T5, biotinylated F12 derivative GGGSASRICPWNCKEL (not fully specified (bridges); cysteine pairing not given here); assay: as above
T5 construct: Free peptide loaded on a streptavidin coated plate for ELISA
T5 peptide: Biotin-GGGSASRICPWNCKEL

[6] = biological target: T6, biotinylated F12 derivative GGSGGGGSASRICPWNCKEL (not fully specified; biotinylated on the N-terminus); assay: as above
T6 construct: Free peptide loaded on a streptavidin coated plate for ELISA
T6 peptide: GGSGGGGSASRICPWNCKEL

[7] = biological target: T7, biotinylated F12 derivative GSGGGGSGGGGSASRICPWNCKEL (not fully specified; biotinylated on the N-terminus); assay: as above
T7 construct: Free peptide loaded on a streptavidin coated plate for ELISA
T7 peptide: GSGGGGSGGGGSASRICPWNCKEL

[8] = biological target: T8, biotinylated F12 derivative GGGGSGGGGSGGGGSASRICPWNCKEL (not fully specified; biotinylated on the N-terminus); assay: as above
T8 construct: Free peptide loaded on a streptavidin coated plate for ELISA
T8 peptide: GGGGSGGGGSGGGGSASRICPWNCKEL

[9] = biological target: T9, FMC63 Mimotope (G9) RLCPWSCREL; assay: flow cytometry of yeast clones stained with FMC63 IgG (5 µM by paragraph 811); stacked histograms, no unstained control drawn
T9 construct: Parent of the alanine scan
T9 peptide: RLCPWSCREL
Procedure: as §1

[10] = biological target: T10, FMC63 Mimotope Mutant RLCPWSCREA; assay: as above
T10 construct: also called G9 X5 (Leu 10) to Ala
T10 peptide: RLCPWSCREA
Procedure: as §1

[11] = biological target: T11, FMC63 Mimotope Mutant RLCPWSCRAL; assay: as above
T11 construct: also called G9 X4 (Glu 9) to Ala
T11 peptide: RLCPWSCRAL
Procedure: as §1

[12] = biological target: T12, FMC63 Mimotope Mutant RLCPWSCAEL; assay: as above
T12 construct: also called G9 X3 (Arg 8) to Ala
T12 peptide: RLCPWSCAEL
Procedure: as §1

[13] = biological target: T13, FMC63 Mimotope Mutant RLCPWACREL; assay: as above
T13 construct: also called G9 X2 (Ser 6) to Ala
T13 peptide: RLCPWACREL
Procedure: as §1

[14] = biological target: T14, FMC63 Mimotope Mutant RACPWSCREL; assay: as above
T14 construct: also called G9 X1 (Leu 2) to Ala
T14 peptide: RACPWSCREL
Procedure: as §1

[15] = biological target: T15, FMC63 Mimotope (C5) RMCPWSCYEL; assay: flow cytometry of yeast clones titrated with biotinylated FMC63 IgG, MFI (geometric mean); axis without unit, nM by the legend paragraph 211
T15 peptide: RMCPWSCYEL

[16] = biological target: T16, FMC63 Mimotope (C7) RLCPWACQEQ; assay: as above
T16 peptide: RLCPWACQEQ

[17] = biological target: T17, FMC63 Mimotope (H1) RVCPWSCMPI; assay: as above
T17 construct: Not the 1D3 mimotope that is also called H1
T17 peptide: RVCPWSCMPI

[18] = biological target: T18, FMC63 Mimotope (E6) RLCPWSCVPI; assay: as above
T18 peptide: RLCPWSCVPI

[19] = biological target: T19, FMC63 Mimotope (G11) RLCPWNCREL; assay: as above
T19 peptide: RLCPWNCREL

[20] = biological target: T20, FMC63 Mimotope (F12) RICPWNCKEL; assay: as above
T20 construct: also called F12 mimotope
T20 peptide: RICPWNCKEL

[21] = biological target: T21, FMC63 Mimotope (F8) RLCPWDCREL; assay: as above
T21 peptide: RLCPWDCREL

[22] = biological target: T22, FMC63 Mimotope (H8) RICPWACVEL; assay: as above
T22 peptide: RICPWACVEL

[23] = biological target: T23, FMC63 Mimotope (H11) RICPWSCREL; assay: as above
T23 peptide: RICPWSCREL

[24] = biological target: T24, FMC63 Mimotope (B7) RICPWSCMVV; assay: as above
T24 peptide: RICPWSCMVV

B1: FMC63 Mimotope (A1) RHCPWNCSLL (peptide)
peptide: RHCPWNCSLL
modifications: disulfide 3-7 (inferred)
notes: Aga2p-HA-(G4S)3-AS-peptide, cf
Kd (FMC63 IgG): ~1400 nM

B2
binding result [1]: no binding | binding result [2]: no binding | binding result [3]: binds | binding result [4]: binds | binding result [5]: binds | binding result [6]: binds | binding result [7]: binds | binding result [8]: binds | binding result [9]: binds | binding result [10]: binds | binding result [11]: binds | binding result [12]: binds | binding result [13]: binds | binding result [14]: binds | binding result [15]: binds | binding result [16]: binds | binding result [17]: binds | binding result [18]: binds | binding result [19]: binds | binding result [20]: binds | binding result [21]: binds | binding result [22]: binds | binding result [23]: binds | binding result [24]: binds
